The text below walks through data of PMC5697884, “In vitro characterization of the antivirulence target of Gram-positive pathogens, peptidoglycan O-acetyltransferase A (OatA)” (PLoS Pathogens, 2017).

For the data set, the system named is CC(=O)Oc1ccc([N+](=O)[O-])cc1. The experiment in a line: purified protein. The following applies: hydrolysis (esterase) without acceptor, 50 mM sodium phosphate pH 6.5, 5% (v/v) ethanol, 25 °C.

With SpOatAC (Streptococcus pneumoniae R6), the Michaelis-Menten constant (Km) (commonly the substrate concentration at which the rate is half of its maximum) was 0.056 ± 0.0065 mM; the kcat (in general, the number of substrate molecules converted per active site and unit of time at saturation) worked out at 0.016 ± 0.00039 s⁻¹.

Take “SaOatAC (Staphylococcus aureus subsp. aureus NCTC 8325)”: the Michaelis-Menten constant (Km) amounted to 1.15 ± 0.070 mM and the kcat was 0.060 ± 0.00078 s⁻¹.
